In article PMC6477179:

B1: GFP-FIP200 CTR aa 1458-1594 [human] / GST-p62 FIR 4P [human] (parent)
chain 1: RIMLLERTLQLKEEENKRLNQRLMSQSMSSVSSRHSEKIAIRDFQVGDLVLIILDERHDNYVLFTVSPTLYFLHSESLPALDLKPGEGASGASRRPWVLGKVMEKEYCQAKKAQNRFKVPLGTKFYRVKAVSWNKKV
chain 2: MESDNCSGGDDDWTHLSSKEVDPDTGELQSLQMPESEGPDDLDPDQEGPTGLKEA

Variants of: B1
Test: GSH bead recruitment assay imaged by microscopy
Details: with GST-p62 FIR 4P [human];; read off a plot

| Variant | percent of parent |
| --- | --- |
| chain 1 L78A | 100% |
| chain 1 L78F | 92% |
| chain 1 R127A | 21% |
| chain 1 N60F | 56% |
| chain 1 N60A | 95% |
| chain 1 R116D | 21% |
| chain 1 S75A | 83% |
| chain 1 F117W | 80% |
| chain 1 F117A | 19% |
